Experimental findings from publication PMC7806473 are described below.

Several values for one entry are separate records, joined by “and”; a condition that tells them apart may be missing. Equal entries are not always repeated.

Broadly, the stoichiometry N is the number of molecules, sites or subunits per partner or assembly.

Assay [1] addresses T1, bovine alpha-lactalbumin (α-LA), calcium-depleted (bovine), P00711.
T1 chain: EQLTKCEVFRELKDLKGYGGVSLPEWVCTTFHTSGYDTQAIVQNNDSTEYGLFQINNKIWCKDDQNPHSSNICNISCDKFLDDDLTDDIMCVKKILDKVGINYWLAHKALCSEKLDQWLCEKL
Put plainly: AUC; sedimentation velocity, 50,000 rpm, 20 °C, absorbance at 280 nm, c(s) continuous distribution analysis with SEDFIT. Particulars: remark: other sources report otherwise.

The target of assay [2] is T1, bovine alpha-lactalbumin (α-LA), …. Briefly: MALDI-TOF-MS; 1:1 v/v mixture of 0.1% aqueous trifluoroacetic acid MALDI matrix and 50 mM sinapinic acid ionization matrix. Particulars: remark: other sources report otherwise.

B1: bovine alpha-lactalbumin (α-LA), calcium-depleted, P00711 20-142 (natural protein)
chain: EQLTKCEVFRELKDLKGYGGVSLPEWVCTTFHTSGYDTQAIVQNNDSTEYGLFQINNKIWCKDDQNPHSSNICNISCDKFLDDDLTDDIMCVKKILDKVGINYWLAHKALCSEKLDQWLCEKL
B1: the stoichiometry N is 2 and 3 in assay [1]; 2 and 3 and 4 in assay [2].
